Measured values as given in publication PMC5397179.

B1: Biotinylated full length PcrA (Geobacillus stearothermophilus), wild type [modified: biotin; biotin] [Geobacillus stearothermophilus] / YvgS/HelD (SF1 helicase), Bacillus subtilis [B. subtilis 168 (endogenous in the cell … (parent)
chain 1: MNFLSEQLLAHLNKEQQEAVRTTEGPLLIMAGAGSGKTRVLTHRIAYLMAEKHVAPWNILAITFTNKAAREMRERVQSLLGGAAEDVWISTFHSMCVRILRRDIDRIGINRNFSILDPTDQLSVMKTILKEKNIDPKKFEPRTILGTISAAKNELLPPEQFAKRASTYYEKVVSDVYQEYQQRLLRNHSLDFDDLIMTTIQLFDRVPDVLHYYQYKFQYIHIDEYQDTNRAQYTLVKKLAERFQNICAVGDADQSIYRWRGADIQNILSFERDYPNAKVILLEQNYRSTKRILQAANEVIEHNVNRKPKRIWTENPEGKPILYYEAMNEADEAQFVAGRIREAVERGERRYRDFAVLYRTNAQSRVMEEMLLKANIPYQIVGGLKFYDRKEIKDILAYLRVIANPDDDLSLLRIINVPKRGIGASTIDKLVRYAADHELSLFEALGELEMIGLGAKAAGALAAFRSQLEQWTQLQEYVSVTELVEEVLDKSGYREMLKAERTIEAQSRLENLDEFLSVTKHFENVSDDKSLIAFLTDLALISDLDELDGTEQAAEGDAVMLMTLHAAKGLEFPVVFLIGMEEGIFPHNRSLEDDDEMEEERRLAYVGITRAEEELVLTSAQMRTLFGNIQMDPPSRFLNEIPAHLLETASRRQAGASRPAVSRPQASGAVGSWKVGDRANHRKWGIGTVVSVRGGGDDQELDIAFPSPIGIKRLLAKFAPIEKV
chain 2: MNQQDKEWKEEQSRIDEVLKELEKKERFLETSAGGLKHDIIGLRKSFWEDVKVNFDDAHEAIETMASIKQQAELLSDREHNHRRMDQQLKRIHQLKKSPYFGRIDFIENGEEQAERIYIGLASCLDEKEEHFLIYDWRAPISSLYYNYSPGKAEYEVPGETIEGEMVLKRQFMIKNGTLKAMFNTDMTIGDEMLQEVLSHHSDTQMKNIVSTIQKEQNQIIRNEKSKILIVQGAAGSGKTSAALQRVAYLLYRHRGVIDAGQIVLFSPNFLFNSYVSSVLPELGEENMEQATFQEYIEHRLGRKFKCESPFDQLEYCLTETKGGDFPTRLAGITWKAGLSFQQFINEYVTRLSSEGMIFKNIIFRGQKLITKEQIQSYFYSLDQNHSIPNRMEQTAKWLLSELNKLEKKERRKDWVVHEAELLDKEDYLDVYKKLQERKRFSESTFNDYQREQQLLAAIIVKKAFKPLKQAVRLLAFLDVTQLYLQLFSGWGGKFQHEKMDAIGELTRSAFTDNKLLYEDAAPFLYMQDLIEGRKKNTKIKHLFIDEAQDYSPFQMAYMRSIFPAASMTVLGDINQSIYAHTINGDQRMDACFEDEPAEYVRLKRTYRSTRQIVEFTKAMLQDGADIEPFNRSGEMPLVVKTEGHESLCQKLAQEIGRLKKKGHETIAVICKTAHQCIQAHAHMSEYTDVRLIHKENQPFQKGVCVIPVYLAKGIEFDAVLVYDASEEHYHTEHDRRLLYTACTRAMHMLAVFYTGEASPFVTAVPPHLYQIAE

Variants of: B1
Experiment: pulldown quantified by mass spectrometry
Conditions: with YvgS/HelD (SF1 helicase), parent: 97, read off a plot

| Variant | screen value |
| --- | --- |
| chain 1 K712A | 9.5 |
| chain 1 L714A | 3.5 |
